These results are taken from the nanobody polyreactivity screen of Harvey et al. (2022).

The nature of the data set: yeast display, Sf9 membrane polyspecificity reagent, FACS + sequencing; frameworks hold sequencing errors. The essentials:
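Genes from sorted yeast were amplified by colony PCR, read by MiSeq 2 × 250 sequencing and filtered on CDR length. These cells carried a synthetic nanobody library in Saccharomyces cerevisiae BJ5465 and were sorted by FACS into low and high (top ~1%) gates on anti-HA and streptavidin fluorescence. Polyreactivity is labelled according to the gate of origin.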
On to “QVQLVESGGGLVQAGGSLRLSCAASGSIFPHNAMGWYRQAPGKERELVAAISTSGGRTYYADSVKGRFTISRDNAKNTVYLQMNSLKPVDTAVYYCNARSVRSRYDYWGQGTQVTVSS”, for which the “polyreactivity (PSR sort gate)” value was “high polyreactivity”.

With “QVQLVESGGGLVQAGGSLRLSCAASGSIFPHYAMGWYRQAPGKERELVASITYDGDSTYYADSVKGRFTISRDNAKNTVYLQMNSLKPEDTAVYYCAADYYYVYSSFGHYYWGQGTQVTVSS”, the “polyreactivity (PSR sort gate)” value is on record as “low polyreactivity”.

Turning to “QVQLVESGGGLVQAGGSLRLSCAASGSIFPIYAMGWYRQAPGKERELVAAIDSSGGSTYYADSVKGRFTISRDNAKNTVYLQMNSLKPEDTAVYYCAADFGSKSTPYDYWGQGTQVTVSS”, the “polyreactivity (PSR sort gate)” value was “low polyreactivity”.

In the case of “QVQLVESGGGLVQAGGSLRLSCAASGSIFPLYAMGWSRQAPGKERELVAAITWRGGSTYYADSVKGRFTITRDNAKNTVYLQMNSLKPEDTAVYYCNRDLVPRFDYWGQGTQVTVSS”, the “polyreactivity (PSR sort gate)” value is listed as “low polyreactivity”.

With “QVQLVESGGGLVQAGGSLRLSCAASGSIFPLYVMGWYRQAPGKERELVAAISSAADTYYADSVKGRFTISRDNAKNTVYLQMNSLKPEDTAVYYCAAAVLYWVGYGYWGQGTQVTVSS”, the “polyreactivity (PSR sort gate)” value is given as “low polyreactivity”.

On to “QVQLVESGGGLVQAGGSLRLSCAASGSIFPPYALGWYRQAPGKERELVAAIDWGGSSTYYADSVKGRFTISRDNAKYTVYLQMNSLKPEATAVYYCAAEVVHGYYLYEYWGQGTQVTVSS”, for which the “polyreactivity (PSR sort gate)” value is given as “high polyreactivity”.

Regarding “QVQLVESGGGLVQAGGSLRLSCAASGSIFPPYAMGWYRQAPGKERELVATITIRGGSTYYADSVKGRFTISRDNAKNTVYLEMNSLKPDDTAVYYCAADYTKYYRSYYYWGQGTQVTVSS”, the “polyreactivity (PSR sort gate)” value is “high polyreactivity”.

Regarding “QVQLVESGGGLVQAGGSLRLSCAASGSIFPPYTMGWFRQAPGKELELVATISSTGITNYADSVKGRFTNSRDNAKNTVYLQMNSLKQEDTAVYYCAAGLWYSFDYWGQGTQVTVSS”, the “polyreactivity (PSR sort gate)” value is given as “high polyreactivity”.

In the case of “QVQLVESGGGLVQAGGSLRLSCAASGSIFPPYVMGWYRQAPGKERELVASITTSGGSTYYADSVKGRFTISRDNAKNTVYLQMNSLKPEDTAVYYCAARWYYGGKSAGPGGGYWGQGTQVTVSS”, the “polyreactivity (PSR sort gate)” value is “low polyreactivity”.

As to “QVQLVESGGGLVQAGGSLRLSCAASGSIFPRDAMGRYRQAPGKERELVAAITGSGSSTYYADSVKGRFTISRDNAKNTVYLQMNSLKPEDTAVYYCNTARPTAAYDYWGQGTKVTVSS”, the “polyreactivity (PSR sort gate)” value is “low polyreactivity”.

For the sequence “QVQLVESGGGLVQAGGSLRLSCAASGSIFPRNAMGWSRQAPGKERELVARINSGGTTKYADSVKGRFTISRDNAKNTVYLQMNSLKPEDTAVYYCNADTYILDPLRKSYGYDYWGQGTQVTVSS”, the “polyreactivity (PSR sort gate)” value was “low polyreactivity”.

As to “QVQLVESGGGLVQAGGSLRLSCAASGSIFPRNAMGWYRQAPGKERELVAAITVSDGRTYYADSVKGRFTISRDNAKNTVYLQMNSLKPEDTAVYYCAAGYTYYSLYGYWGQGTQVTVSS”, the “polyreactivity (PSR sort gate)” value is “low polyreactivity”.

Take “QVQLVESGGGLVQAGGSLRLSCAASGSIFPRYAMGWYRQAPGKERELVATISQSGGSTYYADSVKGRFTISRDSAKNTVYLQMNSLKPEDTAVYYCAAKVYRSAYYVGKYYPYYYWGQGTQVTVSS”: the “polyreactivity (PSR sort gate)” value was “high polyreactivity”.

Regarding “QVQLVESGGGLVQAGGSLRLSCAASGSIFPSNAMGWYRQAPGKERELVAAISSSGGRTYYADSVKGRFTISRDNAKNTVYLQMNSLKPEDTAVYYCAAKYTVYGVGYYYWGQGTQVTVSS”, the “polyreactivity (PSR sort gate)” value is reported as “high polyreactivity”.

Consider “QVQLVESGGGLVQAGGSLRLSCAASGSIFPSNAMGWYRQAPGKERELVAAISWSGDITYYADSVKGRFTISRDNAKNTVYLQMNSLKPEDTAVYYCAADTPIAGYWYNYWGQGTQVTVSS”, for which the “polyreactivity (PSR sort gate)” value was “low polyreactivity”.

As to “QVQLVESGGGLVQAGGSLRLSCAASGSIFPSYAMGWYRQAPGKERELVAAISSGGTTNYADSVKGRFTISLDNAKNTVYLQMNSLKPEDTAVYYCAAVRGDSEDRYDHWGQGTQVTVSS”, the “polyreactivity (PSR sort gate)” value is on record as “high polyreactivity”.
